Where a chain is given by its changes, count along the chain named.

Test [1] has as its target T1, EGF receptor (UniProt P00533 25-1210, limits assumed).
T1 construct: whole, on cells; also called epidermal growth factor receptor
As to the kind of experiment: immunofluorescence of phage on A431 cells.

Test [2] concerns the target T1, EGF receptor. The experiment in a line: competition of fdEGF phage binding to A431 cells, FACS, inhibition from mean fluorescence intensity.

B1: EGF1 library clone 3 (phage-displayed EGF variant) (other)
chain: NSDSECPLSHDGYCLHDGVCMYIEALDEYACNCVVGYIGERCQYRDLRWWELR
modifications: displayed on phage as a coat protein fusion (pHEN3)
notes: also called EGF1 # 3; not shown: phage coat protein fusion partner of phagemid pHEN3 (and any vector tags) at the C end
In the case of B1, the binding result with EGF receptor [1] is listed as “binds”.

B2: HisEGFm1 (EGFm1 with N-terminal hexahistidyl tag) (ligand, human, UniProt P01133 971-1023, looked up)
chain: B1 chain with E28Q, R45S, R48S, R53S
notes: mature; Clone 6 of the EGF2 library selection, expressed in the E. coli periplasm and purified by IMAC; The preparation also held molecules of about 15 kDa (dimer size); also called purified EGFm1; soluble EGFm1; not shown: N-terminal hexahistidyl tag (HHHHHH); primer SfiHisEGF encodes ...Met-Ala-Gly-His6-Ala befor
On to B2, for which, in the test with EGF receptor [2], the IC50 (usually the concentration at which inhibition is half-maximal) was around 500 nM.

Source of the values: EP1557429A1 (Vectron Therapeutics AG, dated 2005).
